Measurements from the supplement of paper PMC9732359.
± gives the uncertainty stated by the source.

Assay: protein stability index of a GFP-peptide fusion (yeast GPS) (PSI 1-4); higher = more stable; sorted into four equal gates, so the index is relative within each strain
Summary of the method: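 The protein stability index combines read frequencies across sorting gates, each weighted by its gate number and then summed. To obtain those frequencies, a pooled yeast library of GFP fusions to tiled 17-residue yeast protein peptides, on a plasmid also expressing Cherry, was grown to mid-log phase in leucine-free medium. The cells were sorted into four equal gates by GFP/Cherry ratio before plasmid amplification by PCR and Illumina sequencing.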

Sequence	protein stability index (doa10∆)	protein stability index (pdr5∆)	protein stability index (san1∆)	protein stability index (ubr1∆)
APIADDNHSGDATANAT [DSN1]	3.15 ± 0.1	3.08 ± 0.071	3.27 ± 0.083	3.38 ± 0.076
APIPIREDIDDPLAKVN [BRR2]	2.9 ± 0.075	2.66 ± 0.07	2.55 ± 0.09	2.22 ± 0.059
APMYILDEVDAALDLSH [SMC2]	2.94 ± 0.29	2.85 ± 0.21	2.92 ± 0.23	3 ± 0.073
APSIIFMDEIDSIGSTR [RPT6]	2.76 ± 0.063	2.89 ± 0.088	2.83 ± 0.058	2.93 ± 0.054
AQAAQAAQAQAQAQAQA [GAL11]	2.53 ± 0.041	2.87 ± 0.046	2.71 ± 0.034	2.82 ± 0.044
AQADKQDISSSTRVEFE [FAS2]	3.12 ± 0.081	3.17 ± 0.068	3.08 ± 0.06	3.33 ± 0.055
AQAFVELENSSPELKAE [RPS7A]	3.08 ± 0.23	–	–	–
AQNQGGQVSMSQFNGSG [PGD1]	3.42 ± 0.12	3.29 ± 0.12	2.93 ± 0.081	3.23 ± 0.076
AQQLRNQQQQQQQQQQQ [GAL11]	2.98 ± 0.095	2.92 ± 0.11	2.92 ± 0.094	3.04 ± 0.065
AQQQQLSNYPQQIQEQV [YGR119C/NUP57]	2.82 ± 0.059	3.09 ± 0.058	2.71 ± 0.046	3.02 ± 0.044
AQTEIKLFNKWSFEEVE [RPS5]	3.2 ± 0.092	3.23 ± 0.11	3.51 ± 0.09	3.22 ± 0.069
ARAVQDNGESAFRTLRL [RPL13A]	3 ± 0.13	2.88 ± 0.1	1.57 ± 0.098	2.87 ± 0.096
ARFRSIHILKVAEIEKT [RPL20A]	1.2 ± 0.067	1.16 ± 0.051	1.14 ± 0.088	1.08 ± 0.048
ARIHAQNYLKTYNEDIP [PRE9]	2.28 ± 0.051	1.99 ± 0.079	2.75 ± 0.085	2.05 ± 0.061
ARILGTRALQISMNAPV [RPO26]	–	1.45 ± 0.24	–	1.39 ± 0.13
ARLEPGTAIGAIGAQSI [RPO31]	2.76 ± 0.097	1.82 ± 0.079	1.49 ± 0.14	2.39 ± 0.053
ARVLSNYLRQQCNYSSL [PRE5]	2.71 ± 0.17	2.96 ± 0.11	–	2.78 ± 0.087
ARYSIIREINYTMSNHG [RPO31]	–	–	–	1.44 ± 0.23
ASDLVLIVIDVVEGVTF [SNU114]	1.33 ± 0.041	1.58 ± 0.059	2.07 ± 0.1	2.38 ± 0.047
ASFQIVEEDHTLGNALR [RPC19]	2.74 ± 0.21	2.22 ± 0.23	–	3.35 ± 0.26
ASGCNVTPIIDGIVVKN [ARP7]	1.9 ± 0.064	2.38 ± 0.063	2.25 ± 0.077	2.9 ± 0.055
ASGKEVEKVATAVLSTT [RPN2]	2.76 ± 0.14	3.47 ± 0.17	–	–
ASISLAIGYPTLPSVGH [RPP0]	2.66 ± 0.075	2.73 ± 0.059	2.86 ± 0.11	2.62 ± 0.049
ASKYNCDKSVCRKCYAR [RPL40A]	2.81 ± 0.056	2.9 ± 0.058	2.87 ± 0.046	2.73 ± 0.053
ASQPEPTTNEPAKPALS [YJL041W/NSP1]	2.81 ± 0.097	3.14 ± 0.077	2.92 ± 0.059	3.12 ± 0.06
ATAALEIILKLCRNPLT [YJL039C/NUP192]	2.03 ± 0.065	1.95 ± 0.063	1.25 ± 0.098	2.38 ± 0.059
ATANATANATAELNLPT [SNF11]	3.096 ± 0.028	3.265 ± 0.029	3.212 ± 0.032	3.282 ± 0.02
ATGFGAHMANPLLRKVV [PRE4]	3.29 ± 0.14	3.02 ± 0.13	1.58 ± 0.17	3.34 ± 0.18

Sequence	protein stability index (doa10∆)	protein stability index (pdr5∆)	protein stability index (san1∆)	protein stability index (ubr1∆)
ATLNYIDKNHGFERLTV [SRB7]	–	3.28 ± 0.15	–	3.49 ± 0.13
ATLSKLKKKYQIILDRF [SIR3]	2.32 ± 0.065	1.95 ± 0.073	1.75 ± 0.12	1.71 ± 0.061
ATMENIQKGKFTLLDFK [SRP54]	2.98 ± 0.068	3.04 ± 0.081	2.42 ± 0.089	2.96 ± 0.046
ATSTKVSVEGVNVEKFN [RPL6A]	2.88 ± 0.11	3.4 ± 0.11	3.31 ± 0.059	3.16 ± 0.1
ATVEECVKLTVRSLLEV [PRE6]	1.53 ± 0.052	1.72 ± 0.064	1.88 ± 0.12	1.47 ± 0.055
ATVLSRKILKKTFKNPK [RPN5]	2.4 ± 0.044	2.67 ± 0.047	2.55 ± 0.057	2.87 ± 0.037
AVAEAYNNRSLLDFNTA [RPN6]	3.16 ± 0.081	2.98 ± 0.077	3.11 ± 0.066	3.25 ± 0.11
AVGAHSDLLKVLKSKKL [RPL4A]	3.13 ± 0.14	3.14 ± 0.13	2.61 ± 0.16	2.82 ± 0.062
AVHNGDRKHVAALRTVK [RPL9B]	2.09 ± 0.064	2.23 ± 0.076	2.36 ± 0.061	2.71 ± 0.049
AVHSIIALSRRFLLNGR [YDL116W/NUP84]	2.11 ± 0.086	1.56 ± 0.069	2.06 ± 0.14	1.99 ± 0.085
AVKYGLNHVVALIENKK [RPL8A]	2.26 ± 0.19	2.48 ± 0.12	–	2.45 ± 0.067
AVLNVSPVYDVDPRIIN [NUT1]	2.2 ± 0.078	2.29 ± 0.064	1.82 ± 0.091	2.17 ± 0.06
AVNLLNCPHSDSTQLLE [SSN2]	2.67 ± 0.15	3.3 ± 0.092	3.51 ± 0.15	2.9 ± 0.072
CCYFIEWKSNHKKKRSN [SRB8]	1.81 ± 0.048	2.08 ± 0.054	2.1 ± 0.073	1.92 ± 0.048
CDLDFPLRENTNVLDVK [YDL116W/NUP84]	2.72 ± 0.065	2.36 ± 0.055	2.36 ± 0.077	2.56 ± 0.037
CDQTKSVPLMINAKNIA [RRP43]	1.74 ± 0.061	2.21 ± 0.078	1.53 ± 0.11	1.61 ± 0.068
CFVHRYKDVSDLIRSES [IRR1]	2.67 ± 0.082	2.7 ± 0.061	2.89 ± 0.056	2.89 ± 0.06
CIVDFTNPKLKSEFDDL [YMR129W/POM152]	1.81 ± 0.067	2.1 ± 0.074	1.82 ± 0.13	1.69 ± 0.052
CKKNTKKCLKLAYENKI [POP4]	2.77 ± 0.068	2.7 ± 0.076	2.87 ± 0.057	3.13 ± 0.067
CKLTLDINVELFPVAAQ [RPB8]	2.57 ± 0.063	2.24 ± 0.079	2.43 ± 0.078	2.96 ± 0.05
CKQVHDKLTSIQDTLRT [MED7]	2.68 ± 0.074	2.85 ± 0.048	2.67 ± 0.044	2.81 ± 0.053
CNAQPITRSVMRFNIEI [BRR2]	2.71 ± 0.082	2.82 ± 0.066	2.77 ± 0.058	3.02 ± 0.064
CNSLHIPQDFENEVSDI [ESC2]	2.95 ± 0.06	3.03 ± 0.056	2.93 ± 0.088	2.92 ± 0.045
CPLSQQFCGIKERNSLK [BRR2]	2.88 ± 0.16	3.14 ± 0.1	2.71 ± 0.094	3.08 ± 0.076
CPNSTGAELRSVCTEAG [RPT1]	1.54 ± 0.053	1.56 ± 0.058	1.65 ± 0.098	1.55 ± 0.047
CQEEVSTIEKDMKEYDS [SMC2]	3.39 ± 0.12	3.51 ± 0.084	3.42 ± 0.081	3.63 ± 0.095
CQYMVACVPLLPPPEDV [RPN1]	2.03 ± 0.046	2.57 ± 0.073	2.65 ± 0.048	2.76 ± 0.053
